Test results taken from US20240189442.

Tests used:
[1] = tested on: T1, SEQ ID NO: 50
T1 sequence: LSGRSDNH

[2] = tested on: T2, SEQ ID NO: 52
T2 sequence: LGGSGRSANAILE

[3] = tested on: T3, SEQ ID NO: 51
T3 sequence: SGRSA

[4] = tested on: T4, SEQ ID NO: 54
T4 sequence: GSGRNAQV

[5] = tested on: T5, SEQ ID NO: 53
T5 sequence: LGGSGRNAQVRLE

Sequence of Tissue-type Plasminogen Activator (tPA) (P00750 36-562): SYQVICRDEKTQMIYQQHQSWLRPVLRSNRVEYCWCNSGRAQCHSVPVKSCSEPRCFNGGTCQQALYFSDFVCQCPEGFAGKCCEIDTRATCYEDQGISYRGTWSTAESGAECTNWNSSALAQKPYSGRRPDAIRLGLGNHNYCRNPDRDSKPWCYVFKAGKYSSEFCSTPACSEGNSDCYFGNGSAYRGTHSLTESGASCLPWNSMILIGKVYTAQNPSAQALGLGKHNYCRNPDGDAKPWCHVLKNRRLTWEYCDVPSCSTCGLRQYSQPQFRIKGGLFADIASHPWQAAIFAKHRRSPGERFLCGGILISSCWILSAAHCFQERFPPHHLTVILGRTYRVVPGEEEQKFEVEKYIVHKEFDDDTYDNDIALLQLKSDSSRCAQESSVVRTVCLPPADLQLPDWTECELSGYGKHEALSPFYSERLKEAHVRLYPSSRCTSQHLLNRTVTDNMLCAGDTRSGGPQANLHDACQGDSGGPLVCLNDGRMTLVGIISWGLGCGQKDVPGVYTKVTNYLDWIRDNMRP

| Substance | Fold of Increase, fluorescence intensity; tPA digestion at 2.25 × 10^-2 mg/mL [1] | Fold of Increase, fluorescence intensity; tPA digestion at 7.5 × 10^-3 mg/mL [1] | Fold of Increase, fluorescence intensity; tPA digestion at 2.25 × 10^-2 mg/mL [2] | Fold of Increase, fluorescence intensity; tPA digestion at 7.5 × 10^-3 mg/mL [2] | Fold of Increase, fluorescence intensity; tPA digestion at 2.25 × 10^-2 mg/mL [3] | Fold of Increase, fluorescence intensity; tPA digestion at 7.5 × 10^-3 mg/mL [3] | Fold of Increase, fluorescence intensity; tPA digestion at 2.25 × 10^-2 mg/mL [4] | Fold of Increase, fluorescence intensity; tPA digestion at 7.5 × 10^-3 mg/mL [4] | Fold of Increase, fluorescence intensity; tPA digestion at 2.25 × 10^-2 mg/mL [5] | Fold of Increase, fluorescence intensity; tPA digestion at 7.5 × 10^-3 mg/mL [5] | Fold of Increase, fluorescence intensity (FRET cleavage assay) [1] | Time to Reach Plateau (hr), fluorescence intensity (FRET cleavage assay) [1] | Fold of Increase, fluorescence intensity (FRET cleavage assay) [2] | Time to Reach Plateau (hr), fluorescence intensity (FRET cleavage assay) [2] | Fold of Increase, fluorescence intensity (FRET cleavage assay) [3] | Time to Reach Plateau (hr), fluorescence intensity (FRET cleavage assay) [3] | Fold of Increase, fluorescence intensity (FRET cleavage assay) [4] | Time to Reach Plateau (hr), fluorescence intensity (FRET cleavage assay) [4] | Fold of Increase, fluorescence intensity (FRET cleavage assay) [5] | Time to Reach Plateau (hr), fluorescence intensity (FRET cleavage assay) [5] |
| --- | --- | --- | --- | --- | --- | --- | --- | --- | --- | --- | --- | --- | --- | --- | --- | --- | --- | --- | --- | --- |
| Tissue-type Plasminogen Activator (tPA) | 1.1 fold | 0.63 fold | 2.1 fold | 1.2 fold | 5.4 fold | 2.1 fold | 2.6 fold | 0.91 fold | 1.3 fold | 0.73 fold | – | – | – | – | – | – | – | – | – | – |
| Urokinase-type Plasminogen Activator (uPA) | – | – | – | – | – | – | – | – | – | – | 4.9 fold | 1.7 h | 3.1 fold | 1.4 h | 9.6 fold | 1.8 h | 4.7 fold | 1.4 h | 3 fold | 1.6 h |
